# T1: FcγRIIa H (human, UniProt P12318 34-217)
# T1 construct: extracellular domain; also called FcγRIIa type H; 2aH
# T1 sequence (looked up): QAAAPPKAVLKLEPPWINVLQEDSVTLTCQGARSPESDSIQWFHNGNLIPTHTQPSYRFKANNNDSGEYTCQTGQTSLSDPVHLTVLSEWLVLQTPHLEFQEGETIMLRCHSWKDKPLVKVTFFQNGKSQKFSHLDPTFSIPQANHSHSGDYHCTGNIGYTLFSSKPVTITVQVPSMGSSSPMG
# T2: FcγRIIb (human, UniProt P31994 43-217)
# T2 construct: extracellular domain; also called 2b; FcgRIIb
# T2 sequence (looked up): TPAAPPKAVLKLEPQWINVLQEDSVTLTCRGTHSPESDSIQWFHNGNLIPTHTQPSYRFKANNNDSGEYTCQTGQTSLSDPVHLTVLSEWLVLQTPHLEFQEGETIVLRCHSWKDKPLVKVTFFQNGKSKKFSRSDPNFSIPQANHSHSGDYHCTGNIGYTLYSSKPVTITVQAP
# B1: GpH7-A5/GpH7-B3 variant E269_15Y/GpL16-k0 (antibody, human IgG1, kappa)
# heavy 1: not shown
# heavy 2: not shown
# light: DIVMTQSPLSLPVTPGEPASISCQASESLVHSNRNTYLHWYLQKPGQSPQLLIYKVSNRFSGVPDRFSGSGSGTDFTLKISRVEAEDVGVYYCSQNTHVPPTFGQGTKVEIERTVAAPSVFIFPPSDEQLKSGTASVVCLLNNFYPREAKVQWKVDNALQSGNSQESVTEQDSKDSTYSLSSTLTLSKADYEKHKVYACEVTHQGLSSPVTKSFNRGEC
# notes: Heterodimerized anti-glypican-3 IgG1 (He Ab); mutation in the B3 H chain only; also called He Ab
# B2: GpH7-A5/GpH7-B3 variant E269_16H/GpL16-k0 (antibody, human IgG1, kappa)
# heavy 1: not shown
# heavy 2: not shown
# light: B1 light
# notes: as for B1
# B3: GpH7-A5/GpH7-B3 variant E269_18N/GpL16-k0 (antibody, human IgG1, kappa)
# heavy 1: not shown
# heavy 2: not shown
# light: B1 light
# notes: as for B1
# B4: GpH7-A5/GpH7-B3 variant S298_14T/GpL16-k0 (antibody, human IgG1, kappa)
# heavy 1: not shown
# heavy 2: not shown
# light: B1 light
# notes: as for B1
# B5: GpH7-A5/GpH7-B3 variant P271_20W/GpL16-k0 (antibody, human IgG1, kappa)
# heavy 1: not shown
# heavy 2: not shown
# light: B1 light
# notes: as for B1
# B6: GpH7-A5/GpH7-B3 variant S298_10E/GpL16-k0 (antibody, human IgG1, kappa)
# heavy 1: not shown
# heavy 2: not shown
# light: B1 light
# notes: as for B1
# B7: GpH7-A5/GpH7-B3 variant S298_07I/GpL16-k0 (antibody, human IgG1, kappa)
# heavy 1: not shown
# heavy 2: not shown
# light: B1 light
# notes: as for B1
# B8: GpH7-A5/GpH7-B3 variant Y300_08L/GpL16-k0 (antibody, human IgG1, kappa)
# heavy 1: not shown
# heavy 2: not shown
# light: B1 light
# notes: as for B1
# B9: GpH7-A5/GpH7-B3 variant S298_03V/GpL16-k0 (antibody, human IgG1, kappa)
# heavy 1: not shown
# heavy 2: not shown
# light: B1 light
# notes: as for B1
# B10: GpH7-A5/GpH7-B3 variant Q295_20W/GpL16-k0 (antibody, human IgG1, kappa)
# heavy 1: not shown
# heavy 2: not shown
# light: B1 light
# notes: as for B1
# B11: GpH7-A5/GpH7-B3 variant Q295_13S/GpL16-k0 (antibody, human IgG1, kappa)
# heavy 1: not shown
# heavy 2: not shown
# light: B1 light
# notes: as for B1
# B12: GpH7-A5/GpH7-B3 variant Y300_06M/GpL16-k0 (antibody, human IgG1, kappa)
# heavy 1: not shown
# heavy 2: not shown
# light: B1 light
# notes: as for B1
# B13: GpH7-A5/GpH7-B3 variant S298_16H/GpL16-k0 (antibody, human IgG1, kappa)
# heavy 1: not shown
# heavy 2: not shown
# light: B1 light
# notes: as for B1
# B14: GpH7-A5/GpH7-B3 variant P271_15Y/GpL16-k0 (antibody, human IgG1, kappa)
# heavy 1: not shown
# heavy 2: not shown
# light: B1 light
# notes: as for B1
# B15: GpH7-A5/GpH7-B3 variant S298_20W/GpL16-k0 (antibody, human IgG1, kappa)
# heavy 1: not shown
# heavy 2: not shown
# light: B1 light
# notes: as for B1
# B16: GpH7-A5/GpH7-B3 variant E269_19Q/GpL16-k0 (antibody, human IgG1, kappa)
# heavy 1: not shown
# heavy 2: not shown
# light: B1 light
# notes: as for B1
# B17: GpH7-A5/GpH7-B3 variant S298_19Q/GpL16-k0 (antibody, human IgG1, kappa)
# heavy 1: not shown
# heavy 2: not shown
# light: B1 light
# notes: as for B1
# B18: GpH7-A5/GpH7-B3 variant Y300_02A/GpL16-k0 (antibody, human IgG1, kappa)
# heavy 1: not shown
# heavy 2: not shown
# light: B1 light
# notes: as for B1
# B19: GpH7-A5/GpH7-B3 variant E269_20W/GpL16-k0 (antibody, human IgG1, kappa)
# heavy 1: not shown
# heavy 2: not shown
# light: B1 light
# notes: as for B1
# B20: GpH7-A5/GpH7-B3 variant Q295_11K/GpL16-k0 (antibody, human IgG1, kappa)
# heavy 1: not shown
# heavy 2: not shown
# light: B1 light
# notes: as for B1
# B21: GpH7-A5/GpH7-B3 variant Q295_03V/GpL16-k0 (antibody, human IgG1, kappa)
# heavy 1: not shown
# heavy 2: not shown
# light: B1 light
# notes: as for B1
# B22: GpH7-A5/GpH7-B3 variant Q295_05P/GpL16-k0 (antibody, human IgG1, kappa)
# heavy 1: not shown
# heavy 2: not shown
# light: B1 light
# notes: as for B1
# B23: GpH7-A5/GpH7-B3 variant S298_18N/GpL16-k0 (antibody, human IgG1, kappa)
# heavy 1: not shown
# heavy 2: not shown
# light: B1 light
# notes: as for B1
# B24: GpH7-A5/GpH7-B3 variant Q295_12R/GpL16-k0 (antibody, human IgG1, kappa)
# heavy 1: not shown
# heavy 2: not shown
# light: B1 light
# notes: as for B1
# B25: GpH7-A5/GpH7-B3 variant Q295_07I/GpL16-k0 (antibody, human IgG1, kappa)
# heavy 1: not shown
# heavy 2: not shown
# light: B1 light
# notes: as for B1
# B26: GpH7-A5/GpH7-B3 variant Q295_16H/GpL16-k0 (antibody, human IgG1, kappa)
# heavy 1: not shown
# heavy 2: not shown
# light: B1 light
# notes: as for B1
# B27: GpH7-A5/GpH7-B3 variant Y300_03V/GpL16-k0 (antibody, human IgG1, kappa)
# heavy 1: not shown
# heavy 2: not shown
# light: B1 light
# notes: as for B1
# B28: GpH7-A5/GpH7-B3 variant Y300_01G/GpL16-k0 (antibody, human IgG1, kappa)
# heavy 1: not shown
# heavy 2: not shown
# light: B1 light
# notes: as for B1
# B29: GpH7-A5/GpH7-B3 variant Y300_07I/GpL16-k0 (antibody, human IgG1, kappa)
# heavy 1: not shown
# heavy 2: not shown
# light: B1 light
# notes: as for B1
# Target: T1, FcγRIIa H
# Assay: ratio of He/Con_2aH to He/Con_2b (FcγRIIb); SPR
row,He_2aH/2b (IIaH/IIb ratio),Binder
1,1.57,B1
2,1.53,B2
3,1.44,B3
4,1.26,B4
5,1.33,B5
6,1.22,B6
7,1.23,B7
8,1.47,B8
9,1.32,B9
10,1.25,B10
11,1.22,B11
12,1.24,B12
13,1.29,B13
14,1.24,B14
15,1.21,B15
16,1.81,B16
17,1.24,B17
18,1.35,B18
19,1.43,B19
20,1.27,B20
21,1.22,B21
22,1.53,B22
23,1.28,B23
24,1.29,B24
25,1.21,B25
26,1.25,B26
27,1.33,B27
28,1.54,B28
29,1.45,B29

# Target: T2, FcγRIIb
# Assay: SPR (Biacore), captured antibody, FcγR as analyte; GpH7-A5/GpH7-B3/GpL16-k0 = 100
# Description: (§1) The heterodimerized antibodies He Abs in which one of the H chains was introduced with an alteration were assayed for their binding activities to each activating FcγR and inhibitory FcγR according to the method described in Example 4. […] The activating FcγRs in FIGS. 26, 27, 28, and 29 are FcγRIa, FcγRIIa (R), FcγRIIa (H), and FcγRIIIa, respectively.
# (§2) Analysis of interaction between objective antibody and the FcγR was carried out using Biacore T100 (GE Healthcare). HBS-EP+ (GE Healthcare) was used as the running buffer, and the measurement temperature was set to 25° C. Chips produced by immobilizing the antigen peptide by the amine coupling method to a Series S Sencor Chip CM5 (GE Healthcare), or alternatively, chips produced by allowing preliminarily biotinylated antigen peptides to interact with and immobilize onto a Series S Sensor Chip SA (certified) (GE Healthcare) were used. Antibodies of interest were captured onto an antigen peptide-immobilized chip, and allowed to interact to each FcγR diluted with running buffer. To regenerate and repeatedly use the chip, the antibodies captured on the chip were washed off by reacting 10 mM glycine-HCl, pH 1.5.
row,He/Con_2b (relative binding) [%],Binder
1,44.7,B1
2,38.5,B2
3,44.8,B3
4,77.9,B4
5,58.1,B5
6,47.6,B6
7,70.6,B7
8,73.6,B8
9,64.5,B9
10,44.4,B10
11,56.9,B11
12,84.3,B12
13,63.5,B13
14,52.3,B14
15,41.1,B15
16,44.3,B16
17,73.3,B17
18,69.2,B18
19,42.5,B19
20,70.4,B20
21,75.7,B21
22,67.5,B22
23,48.1,B23
24,65.2,B24
25,84.3,B25
26,62.7,B26
27,73.9,B27
28,48.4,B28
29,74.5,B29

# Target: T1, FcγRIIa H
# Assay: as above
# Description: as §1, §2
row,He/Con_2aH (relative binding) [%],Binder
1,70.4,B1
2,59,B2
3,64.4,B3
4,98.5,B4
5,77.4,B5
6,58,B6
7,86.9,B7
8,108,B8
9,85.1,B9
10,55.6,B10
11,69.4,B11
12,105,B12
13,82.1,B13
14,64.6,B14
15,49.9,B15
16,80.2,B16
17,91,B17
18,93.5,B18
19,60.9,B19
20,89.4,B20
21,92,B21
22,103,B22
23,61.6,B23
24,84.1,B24
25,102,B25
26,78.6,B26
27,98,B27
28,74.4,B28
29,108,B29

# — US20150344570A1 (published 2015)
